Measurements: paper PMC10901556, “Conservation of Affinity Rather Than Sequence Underlies a Dynamic Evolution of the Motif-Mediated p53/MDM2 Interaction in Ray-Finned Fishes” (Molecular Biology and Evolution, 2024)
Where no end group is shown, it is not given here.

T1: MDM2_(D.rerio) SWIB domain (Danio rerio (zebrafish))
T1 chain: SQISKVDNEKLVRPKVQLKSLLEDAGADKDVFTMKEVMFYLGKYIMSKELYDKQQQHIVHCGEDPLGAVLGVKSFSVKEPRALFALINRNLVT


Assays:
[1] = target: T1, MDM2_(D.rerio) SWIB domain (Danio rerio …); assay: FP; settings: modification not given
[2] = target: MDM2_(H.sapiens) SWIB domain (Homo sapiens (human)); assay: fluorescence polarisation; displacement: complex of MDM2 (0.2-2 μM) and FITC-p53TAD_(human)^15–26 (15 nM) displaced by increasing unlabeled p53TAD peptide or p53TAD^full-length; KD calculated from IC50 (Nikolovska-Coleska et al. 2004); 20 mM sodium phosphate pH 7.4, 150 mM NaCl, 1 mM TCEP
[3] = target: MDM2 SWIB domain from Takifugu rubripes (Japanese puffer) (Takifugu rubripes (Japanese puffer)); assay: as above
[4] = target: MDM2 SWIB domain from Lepisosteus oculatus (spotted gar) (Lepisosteus oculatus (spotted gar)); assay: as above
[5] = target: MDM2 SWIB domain from Oncorhynchus kisutch (coho salmon) (Oncorhynchus kisutch (coho salmon)); assay: as above
[6] = target: MDM2 SWIB domain from Channa argus (Channa argus); assay: as above
[7] = target: MDM2 SWIB domain from Clupea harengus (Atlantic herring) (Clupea harengus (Atlantic herring)); assay: as above
[8] = target: MDM2 SWIB domain from Anguilla anguilla (European eel) (Anguilla anguilla (European eel)); assay: as above
[9] = target: MDM2 SWIB domain from Maylandia zebra (Maylandia zebra); assay: as above

| Binder | Kd [1] | Kd [2] | also measured |
| --- | --- | --- | --- |
| DSQEFAELWEKN [p53TAD_(D.rerio)^14-26] | > 200000 nM | – | – |
| ELWEKNLISIQPPGG [p53TAD_(D.rerio)^21-35] | > 200000 nM | – | – |
| Ac-SQDTFQDLWENVA [Takifugu rubripes (Japanese puffer) p53TADP1 p53TAD^15–27] | – | 1700 nM | Kd [3]: 4500 nM |
| IQPPGGGSCWDIIND [p53TAD_(D.rerio)^30-44] | > 200000 nM | – | – |
| Ac-SQESFQELWNMVI [Lepisosteus oculatus (spotted gar) p53TAD^15–27] | – | 121 nM | Kd [4]: 390 nM |
| PGSFDPNFFENVLEE [p53TAD_(D.rerio)^49-63] | 210000 nM | – | – |
| Ac-SQESFEDLWKMNL [Oncorhynchus kisutch p53TADP2 p53TAD^15–27] | – | 790 nM | Kd [5]: 1160 nM |
| GGSCWDIINDEEYLP [p53TAD_(D.rerio)^35-49] | > 200000 nM | – | – |
| Ac-SQEFAELWEKNL [Danio rerio (zebrafish) p53TADP2 p53TAD^15–27] | – | 4330 nM | – |
| IINDEEYLPGSFDPN [p53TAD_(D.rerio)^41-55] | > 200000 nM | – | – |
| Ac-SQDSFRELWESVV [Channa argus p53TADP1 p53TAD^15–27] | – | 1100 nM | Kd [6]: 3300 nM |
| Ac-SQGSFQQLWETNM [Oncorhynchus kisutch p53TADP1b p53TAD^15–27] | – | 5150 nM | Kd [5]: 3500 nM |
| Ac-SQGTFDEIWASNF [Clupea harengus (Atlantic herring) p53TADP1 p53TAD^15–27] | – | 1250 nM | Kd [7]: 2600 nM |
| Ac-GQCSFQQLWESNM [Oncorhynchus kisutch (coho salmon) p53TADP1a p53TAD^15–27] | – | 3150 nM | Kd [5]: 2100 nM |
| Ac-SQESFQELWKMMC [Anguilla anguilla (European eel) p53TADP1 p53TAD^15–27] | – | 13 nM | Kd [8]: 190 nM |
| QNDSQEFAELWEKNLISIQPPGGGSCWDIINDEEYLPGSFDPN [p53TAD_(D.rerio)^12-55] | 33 nM | – | – |
| Ac-SQDETFQALWNTVT [Anguilla anguilla p53TADP2 p53TAD^15–27] | – | 770 nM | Kd [8]: 1200 nM |
| Ac-SQDSFKELWDQLP [Maylandia zebra p53TADP1 p53TAD^15–27] | – | 270 nM | Kd [9]: 1600 nM |
